The target of the test is cytochrome c. The test can be described thus: SEC.

From paper PMC2173478 come the findings set out here.

Turning to cytochrome c (natural protein), the stoichiometry N amounted to 2.
